Measured values: patent publication US20040014209A1, “Compositions and methods for modulating cell differentiation” (priority 2002, published 2004)

What was measured:
DMZ explants = test: Wnt cDNA overexpression in DMZ explants, Nkx2.5 and TnIc by in situ hybridization; format: cell-based, Xenopus; conditions: plasmid cDNA injection into dorsal blastomeres; for Incidence of explants expressing Nkx2.5: stage 23; for Incidence of explants expressing TnIc: stage 30
Description: If the normal function of Wnt antagonism in vivo is to induce cardiogenic mesoderm, then overexpression of Wnt proteins should block cardiogenesis in dorsal mesoderm. Four Wnt genes are known to be expressed during gastrulation: Wnt3A, Wnt5A, Wnt8, and Wnt11. Expression of Wnt8 is normally excluded from the organizer region, whereas Wnt 3A and Wnt11 are expressed dorsally and Wnt5A is found diffusely throughout the ectoderm (Christian and Moon 1993; Ku and Melton 1993; Moon et al. 1993; Du et al. 1995; McGrew et al. 1997). We injected Wnt cDNAs into the two dorsal blastomeres of a four-cell embryo and dissected DMZ explants encompassing the organizer and heart primordia at stage 10 (FIG. 10A). Plasmid injections were performed to avoid perturbation of Nieuwkoop center activity that can occur on expression of certain Wnts before the midblastula transition (Smith and Harland 1991; Sokol et al. 1991). Explants were cultured to either stage 23 or stage 30, at which time they were examined for the expression of Nkx2.5 or TnIc.
(§1) Marginal zone explants were dissected at stage 10. Those explants to be examined by RT-PCR for expression of heart field marker- and heart muscle-specific genes were cultured until sibling embryos were stage 30. In situ hybridization was performed on explants cultured to the equivalent of stage 23 or stage 30. Explants to be scored for formation of beating hearts were maintained until the equivalent of stage 41.
(§2) mRNA was transcribed from pSP35-chd, pSP64-ngn, pCS2-DKK1, pCS2-Crescent, pCS2-GSK3, pCS2-WIF, pCS2-dnXwnt8, pCS2-szl, and pXT7-FrzA using the SP6 and T7 mMessage mMachine kits (Ambion). All cDNAs used encode Xenopus proteins except those for Wnt1 and crescent, which encode chick isoforms. The Xenopus form of crescent was identified while this manuscript was in preparation (Pfeffer et al. 1997; Pera and De Robertis 2000; Shibata et al. 2000) and functions identically to the chick isoform in our assays. Xenopus and chick Crescent share 88% amino acid positional identity within the cysteine-rich domain. Injections were performed in 3% Ficoll in 1×MMR. Embryos were injected equatorially into the two ventral or two dorsal blastomeres at the four-cell stage to target expression to the ventral or dorsal marginal zone. The amount of mRNA injected is given in the text. For plasmid cDNA injections, 75 pg of pCS2-Xwnt3A, pCS2-Xwnt5A, and pCSKA-Xwnt8 and 100 pg of pCS2-cWnt11 supercoiled plasmid constructs were injected.
In situ hybridization was performed according to the protocol of Harland (1991). Digoxygenin-labeled probes were transcribed from the following linearized plasmids: pGEM-XNkx2.5 (XbaI, T7 polymerase) and pBS-TnIc (NotI, T7).

mWnt-3a = mWnt-3a (UniProt P27467); test: cell-based or functional assay
APMEE explants = test: APMEE explant culture, cardiac gene expression by RT-PCR; format: cell-based, chick; conditions: noggin administration to APMEE explants
[1] = system: ventral marginal zone (VMZ) explants; test: VMZ explant assay: mRNA injection, cardiac-specific gene expression and beating; format: cell-based, Xenopus laevis
Experimental: In a modification of this assay (FIG. 6A), we targeted mRNAs encoding Wnt and BMP antagonists to VMZ tissue by microinjection into the equatorial region of both ventral blastomeres of four-cell stage embryos. VMZ explants were isolated at stage 10, cultured, and assayed at stage 30 by RT-PCR for cardiac-specific gene expression.
Embryos were fertilized in vitro, dejellied in 2% cysteine-HCl (pH 7.8), and maintained in 0.1×MMR. Explant dissections were performed in 0.75×MMR using an eyelash knife. Embryos were staged according to Nieuwkoop and Faber (1994).
as §1, §2
RT-PCR was performed as described in Schneider and Mercola (1999). Twenty-five cycles were performed at an annealing temperature of 55° C., unless otherwise noted. Expression of EF1α was used as a positive control for the reverse transcriptase reaction. The following additional primers were used: XNkx2.5+, […] (SEQ ID NO: 7); XNkx2.5−, […] (SEQ ID NO: 8); M. actin+, […] (SEQ ID NO: 9); M. actin−, […] (SEQ ID NO: 10) (22 cycles); TnIc+, […] (SEQ ID NO: 11); TnIc−, […] (SEQ ID NO: 12); MHCα+, […] GTTCCG (SEQ ID NO: 13); MHCα−, […] (SEQ ID NO: 14); Tbx5+, […] (SEQ ID NO: 15); Tbx5−, […] (SEQ ID NO: 16) (27 cycles); XNkx2.10+, […] (SEQ ID NO: 17); and XNkx2.10−, […] (SEQ ID NO: 18) (59° C., 28 cycles).
A secreted version of the C-terminal fragment was made by fusing the secretory region of human Dkk1 to the C-terminal region cysteine rich region, as described above. This protein is referred to as “C1.” Briefly, the HindIII-Asp718 C-terminal fragment of human Dkk1 (SEQ ID NO: 1) was ligated to the sequence encoding the secretory signal of Dkk1 and cloned into a vector permitting in vitro transcription. As a control, full length Dkk1 was used. RNA was prepared in vitro from the vector as described above. The RNA encoded a polypeptide comprising amino acids 158-266 of SEQ ID NO: 2. The RNA was then injected into noncardiogenic frog embryonic mesoderm, as described above and in Schneider and Mercola (2001) Genes & Dev. 15:304.

stage 7 chick embryos = test: Cell pellet implantation into stage 7 chick embryos in New culture (heart looping, DiI tracing, in situ hybridization); format: in vivo
[2] = system: murine embryonic stem (ES) cells; test: Cardiac differentiation of ES cells; format: cell-based
Experimental: Full length human Dkk1 (SEQ ID NO: 2) was expressed in host cells and incubated with murine embryonic stem (ES) cells. ES cells were lightly trypsinized, re-plated on petri plastic and cultured for 4 days. During this time, the cells cluster and the mesodermal marker brachyury becomes expressed. Cells were then trypsinized lightly and transferred to gelatin-coated plates with or without recombinant Dkk1 and cultured at 37° C. Cardiomyocyte differentiation of ES cells in the absence of Dkk1 occurs at 13-14 days. ES cells incubated with Dkk1 differentiated into cardiomyocytes at 8-9 days (see FIG. 21).
Cells were grown on gelatin-coated plates without LIF for 2d, then allowed to aggregate on petri dish plastic for 2d, aggregates were then dispersed by mild trypsinization and plated onto gelatin-coated plates with rDkk1- or rC1-conditioned medium or control conditioned medium lacking rDkk for duration of experiment. Presence of beating foci was scored on days 8-14. Instances of beating foci presented as “beating”. Precocious beating sometimes occurred at day 8.

mWnt-3a, sequence (P27467 19-352 limits assumed): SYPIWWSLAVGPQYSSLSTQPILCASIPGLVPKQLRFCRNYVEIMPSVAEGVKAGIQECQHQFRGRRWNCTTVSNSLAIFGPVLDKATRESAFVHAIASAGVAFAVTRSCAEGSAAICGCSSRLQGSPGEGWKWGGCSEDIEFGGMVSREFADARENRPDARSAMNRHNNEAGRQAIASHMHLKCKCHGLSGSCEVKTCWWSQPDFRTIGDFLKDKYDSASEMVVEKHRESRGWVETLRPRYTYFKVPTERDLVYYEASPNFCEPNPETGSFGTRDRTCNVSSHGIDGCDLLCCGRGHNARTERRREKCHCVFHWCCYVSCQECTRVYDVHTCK

## Wnt3A
DMZ explants
  Incidence of explants expressing Nkx2.5: 45.6%
  Incidence of explants expressing TnIc: 24.2%

## chick Crescent
mWnt-3a
  Wnt-induced expression of siamois in Xenopus animal caps (RT-PCR): 3 fold

B1: Wnt8: expressed from injected pCSKA-Xwnt8 plasmid (protein)
chain: AWSVNNFLMTGPKAYLTYSASVAVGAQNGIEECKYQFAWERWNCPESTLQLATHNGLRSATRETSFVHAISSAGVMYTLTRNCSMGDFDNCGCDDSRNGRIGGRGWVWGGCSDNAEFGERISKLFVDGLETGQDARALMNLHNNEAGRLAVKETMKRTCKCHGISGSCSIQTCWLQLAEFRDIGNHLKIKHDQALKLEMDKRKMRSGNSADNRGAIADAFSSVAGSELIFLEDSPDYCLKNISLGLQGTEGRECLQSGKNLSQWERRSCKRLCTDCGLRVEEKKTEIISSCNCKFHWCCTVKCEQCKQVVIKHFCARRERDSNMLNTKRKNRGHRR
DMZ explants
  Incidence of explants expressing Nkx2.5: 19.9%
  Incidence of explants expressing TnIc: 41.1%

B2: Noggin: BMP antagonist; noggin-conditioned medium from CHO cells or injected noggin mRNA (protein, UniProt P49011 20-222, looked up)
Noggin: RIDQGGCQHYLHIRPAPSENLPLVDLIEHPDPIYDPKEKDLNETLLRTLMVGHFDPNFMATILPEERLGVEDLGELDLLLRQKPSGAMPAEIKGLEFYEGLQSKKHRLSKKLRRKLQMWLWSQTFCPVLYTWNDLGTRFWPRYVKVGSCYSKRSCSVPEGMVCKAAKSMHLTILRWRCQRRVQQKCAWITIQYPVISECKCSC
APMEE explants
  APMEE explants in which cardiogenesis was blocked (number of explants): 10 out of 14
[1]; VMZ explants
  mRNA dose inducing muscle actin: ≥ 5 pg
[1]; extreme morphogenetic movements of VMZ explants
  mRNA dose at which explants were unable to survive: > 50 pg
[1]; mRNA injected ventrally at four-cell stage, VMZ explants, RT-PCR stage 30
  Heart-specific gene expression (TnIc, MHCα): did not induce specific markers of cardiogenesis

B3: BMP-4: BMP-4 expressed by implanted 293 cell pellets (protein, UniProt P12644 293-408, looked up)
Bone morphogenetic protein 4: SPKHHSQRARKKNKNCRRHSLYVDFSDVGWNDWIVAPPGYQAFYCHGDCPFPLADHLNSTNHAIVQTLVNSVNSSIPKACCVPTELSAISMLYLDEYDKVVLKNYQEMVVEGCGCR
Stage 7 chick embryos; 293 cell pellets in left anterior paraxial mesoderm, stage 7, n=25
  Embryos with reversed heart looping: 20%
Stage 7 chick embryos; cell pellets in presumptive anterior paraxial mesoderm, in situ hybridization
  vMHC expression: failed to affect subsequent vMHC expression

B4: Wnt5A: expressed from injected pCS2-Xwnt5A plasmid (protein, UniProt P31286 41-380, looked up)
Protein Wnt-5a: VVESSSWWSLGMNPVQMPEVYIIGAQPLCSQLSGLSQGQKKLCQLYQDHMQFIGDGAKTGIKECQYQFRHRRWNCSTVDNTSVFGRVMQIGSRETAFTYAISAAGVVNAVSRACREGELSTCGCSRAARPKDLPRDWLWGGCGDNLDYGYRFAKEFVDAREREKIHQKGSYESSRIMMNLHNNEAGRRAVSTLADVACKCHGVSGSCSLKTCWLQLADFRKVGDHLKEKYDSAGAMKLNTRGKLVQVNNKFNSPTMNDLVYIDPSPDYCVHNESTGSLGTQGRLCNKTSEGMDGCELMCCGRGYDQFKTVQTERCHCKFHWCCYVKCKKCTEVVDQFACK
DMZ explants
  Incidence of explants expressing Nkx2.5: 97.5%
  Incidence of explants expressing TnIc: 85.9%

B5: Dkk1: Full length human Dkk1 (SEQ ID NO: 2), recombinant, expressed in host cells (protein, UniProt O94907 1-266, looked up)
chain: MMALGAAGATRVFVAMVAAALGGHPLLGVSATLNSVLNSNAIKNLPPPLGGAAGHPGSAVSAAPGILYPGGNKYQTIDNYQPYPCAEDEECGTDEYCASPTRGGDAGVQICLACRKRRKRCMRHAMCCPGNYCKNGICVSSDQNHFRGEIEETITESFGNDHSTLDGYSRRTTLSSKMYHTKGQEGSVCLRSSDCASGLCCARHFWSKICKPVLKEGQVCTKHRRKGSHGLEIFQRCYCGEGLSCRIQKDHHQASNSSRLHTCQRH
modifications: full-length
[2]; PCR, relative to ES cells not incubated with Dkk1
  myosin light chain (MLC2a) mRNA: elevated myosin light chain (MLC2a) mRNA
[2]; by comparison with ES cells not incubated with Dkk1
  Beating, Nkx2.5 and contractile protein expression: early beating, an increased number of beating foci, an increased Nkx2.5 expression and increased contractile protein expression
[2]; recombinant Dkk1, 13-14 days in the absence of Dkk1
  Time to cardiomyocyte differentiation of ES cells: 8 to 9 days

B6: Wnt11: expressed from injected pCS2-cWnt11 plasmid (protein, UniProt P49339 25-354, looked up)
Protein Wnt-11: IKWIALSKTPSSLALNQTQHCKQLEGLVVSQVQLCRSNLELMQTIIQAAREVIKTCRKTFSDMRWNCSSIELAPNYLLDLERGTRESAFVYALSAAAISHTIARACTTGDLPGCSCGPIPGETPGPGYRWGGCADNLNYGLIMGSKFSDAPMKMKKSGSQANKLMHLHNSEVGRQVLKASLEMKCKCHGVSGSCSIKTCWKGLQELRDIALDLKNKYLSATKVVHRPMGTRKYLVPKDIDIRPVKETELIYLQSSPDFCMKNEKVGSHGTQDRQCNKTSNGSDSCDLMCCGRGYNPYMDKVVERCHCKYHWCCYVTCKKCERTVERYVCK
DMZ explants
  Incidence of explants expressing Nkx2.5: 94.1%
  Incidence of explants expressing TnIc: 83.1%
